The record followed here is US20080027001A1 (published 2008).

The target in assay [1] is Recombinant MAG-Fc chimera (R&D Systems). Kind of assay: cell-based or functional assay.
Assay [2] has as its target T1, mutant NgR1 EM7 (K277D/R279D) (human, UniProt Q9BZR6 27-447).
T1 construct: whole, on cells
T1 sequence (looked up): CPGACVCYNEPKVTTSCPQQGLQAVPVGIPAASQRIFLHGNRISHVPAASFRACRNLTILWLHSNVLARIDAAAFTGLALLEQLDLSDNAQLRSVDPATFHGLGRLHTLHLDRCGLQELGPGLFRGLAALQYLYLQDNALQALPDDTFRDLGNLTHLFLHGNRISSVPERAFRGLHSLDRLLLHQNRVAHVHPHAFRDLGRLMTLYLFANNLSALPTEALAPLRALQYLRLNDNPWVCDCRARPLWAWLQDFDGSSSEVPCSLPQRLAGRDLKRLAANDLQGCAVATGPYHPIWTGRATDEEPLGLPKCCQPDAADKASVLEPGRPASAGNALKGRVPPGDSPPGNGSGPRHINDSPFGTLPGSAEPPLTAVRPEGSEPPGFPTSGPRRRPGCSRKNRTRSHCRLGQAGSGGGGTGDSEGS
The assay can be described thus: Nogo-66-AP (10 µg/ml) on transfected COS-7 cells, AP luminescence. As for the experimental part:
(§1) The remaining cells were separately plated and assayed for surface expression of the NgR1 proteins by immunocytochemistry (Example 1.9) and for total NgR1 protein levels by Western blot analysis (Example 1.8). […] The next day, wells were rinsed once with HBAH (Hank's Balanced Salt Solution (HBSS) containing bovine serum albumin (0.5 mg/ml), NaN₃ (0.1%), and 20 mM HEPES pH 7.0) at room temperature followed by incubation with 100 μl of AP fusion protein (MAG-AP or Nogo-66-AP) diluted to a final concentration of 10 μg/ml in HBAH for 90 minutes. Wells were then washed six times with gentle shaking in HBAH at room temperature, five minutes each wash. Cells were then fixed with acetone-formaldehyde (60%-3%, in 20 mM HEPES, pH 7.0) for 15 seconds at room temperature, then washed three times for five minutes each with HBSS. Binding of AP-tagged ligands was measured using the Great EscAPe SEAP Kit (BD Biosciences) following the manufacturer's recommended protocol. Briefly, after aspirating HBSS, 60 μl of dilution buffer was added to each well, the plates were sealed, and then incubated at 65° C. for 90 min. Plates were cooled on ice and then 60 μl of assay buffer was added per well and incubated at room temperature for five minutes. Sixty microliters of diluted CSPD® substrate (Applied Biosystems, Foster City, Calif.) was then added per well, incubated for 10 minutes at room temperature, and then read on an LMAXII luminometer (Molecular Devices). Absolute binding numbers were corrected by subtracting average binding values obtained from mock-transfected controls. Binding was further corrected for sample-to-sample variations in transfection efficiency by normalizing to beta-galactosidase activity. Beta-galactosidase activity was measured using the luminescent beta-gal detection kit II (BD Biosciences) following the manufacturer's recommended protocol. Three independent binding experiments were conducted with six to eleven replicates per experiment. Background-subtracted, beta-galactosidase-corrected binding values were expressed relative to the wild type receptor.

The target of assay [3] is T2, mutant NgR1 EM10 (K277A) (human, UniProt Q9BZR6 27-447).
T2 construct: whole, on cells
T2 sequence (looked up): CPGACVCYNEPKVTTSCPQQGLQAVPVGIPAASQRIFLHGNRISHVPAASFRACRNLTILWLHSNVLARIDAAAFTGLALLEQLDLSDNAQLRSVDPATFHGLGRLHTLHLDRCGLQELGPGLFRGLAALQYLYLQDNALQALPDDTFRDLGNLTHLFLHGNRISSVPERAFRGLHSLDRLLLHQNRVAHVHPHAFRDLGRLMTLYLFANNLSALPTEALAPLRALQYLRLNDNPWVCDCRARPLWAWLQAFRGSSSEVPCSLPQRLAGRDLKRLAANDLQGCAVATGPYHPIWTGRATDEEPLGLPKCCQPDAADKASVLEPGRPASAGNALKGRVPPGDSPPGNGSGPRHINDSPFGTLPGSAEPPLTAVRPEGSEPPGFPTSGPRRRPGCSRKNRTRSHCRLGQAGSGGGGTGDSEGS
The description is as above. As for the experimental part: as §1

Assay [4] has as its target T3, mutant NgR1 EM11 (R279A) (human, UniProt Q9BZR6 27-447).
T3 construct: whole, on cells
T3 sequence (looked up): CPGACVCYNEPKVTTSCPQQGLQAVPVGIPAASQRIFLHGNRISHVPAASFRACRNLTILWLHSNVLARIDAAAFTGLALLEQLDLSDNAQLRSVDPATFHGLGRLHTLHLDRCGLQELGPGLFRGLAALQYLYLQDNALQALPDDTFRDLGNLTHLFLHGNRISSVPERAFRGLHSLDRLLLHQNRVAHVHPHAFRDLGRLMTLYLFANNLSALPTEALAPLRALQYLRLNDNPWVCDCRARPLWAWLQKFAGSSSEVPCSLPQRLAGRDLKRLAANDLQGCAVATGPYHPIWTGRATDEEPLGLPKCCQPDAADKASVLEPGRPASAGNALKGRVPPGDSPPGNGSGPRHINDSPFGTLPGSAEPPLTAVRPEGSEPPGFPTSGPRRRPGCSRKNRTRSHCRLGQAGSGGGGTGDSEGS
Described as above. The protocol: as §1

Assay [5] has as its target T4, mutant NgR1 EM8 (K277A, R279A) (human, UniProt Q9BZR6 27-447).
T4 construct: whole, on cells
T4 sequence (looked up): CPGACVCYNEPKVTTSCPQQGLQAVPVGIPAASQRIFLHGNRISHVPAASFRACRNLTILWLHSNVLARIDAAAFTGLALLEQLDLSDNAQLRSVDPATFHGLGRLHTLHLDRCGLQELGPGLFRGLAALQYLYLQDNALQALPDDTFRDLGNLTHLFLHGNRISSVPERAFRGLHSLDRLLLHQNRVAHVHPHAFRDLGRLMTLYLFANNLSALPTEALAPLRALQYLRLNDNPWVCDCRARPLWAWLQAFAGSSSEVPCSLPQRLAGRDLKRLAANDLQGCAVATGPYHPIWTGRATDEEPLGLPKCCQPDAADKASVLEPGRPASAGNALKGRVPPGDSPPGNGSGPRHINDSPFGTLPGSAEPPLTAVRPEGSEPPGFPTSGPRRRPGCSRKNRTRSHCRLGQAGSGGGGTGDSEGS
The assay is described as above. As for the experimental part:
as §1

Assay [6] has as its target T1, mutant NgR1 EM7 (K277D/R279D). Kind of assay: MAG-AP (10 µg/ml) on transfected COS-7 cells, AP luminescence, corrected for background and transfection efficiency. The protocol: as §1
The target of assay [7] is T3, mutant NgR1 EM11 (R279A). The assay is described as above. The protocol:
as §1

Assay [8] concerns the target T4, mutant NgR1 EM8 (K277A, R279A). The assay is described as above. The protocol: as §1

Bridges are numbered along the chain shown (N, C = ends).

For Ac-CQKARGC-NH2 (disulfide 1-7 (inferred)) [NRL2bA2 (N-Ac-CQKARGC-NH2)], in assay [1], the “neurite outgrowth, MAG-Fc at 20 µg/ml: reduction of peptide efficacy against NRL2b” value is around 2 fold.

B1: Nogo-66-AP(C47V) (ligand)
chain: IIPVEEENPDFWNREAAEALGAAKKLQPAQTAAKNLIIFLGDGMGVSTVTAARILKGQKKDKLGPEIPLAMDRFPYVALSKTYNVDKHVPDSGATATAYLCGVKGNFQTIGLSAAARFNQCNTTRGNEVISVMNRAKKAGKSVGVVTTTRVQHASPAGTYAHTVNRNWYSDADVPASARQEGCQDIATQLISNMDIDVILGGGRKYMFRMGTPDPEYPDDYSQGGTRLDGKNLVQEWLAKRQGARYVWNRTELMQASLDPSVTHLMGLFEPGDMKYEIHRDSTLDPSLMEMTEAALRLLSRNPRGFFLFVEGGRIDHGHHESRAYRALTETIMFDDAIERAGQLTSEEDTLSLVTADHSHVFSFGGYPLRGSSIFGLAPGKARDRKAYTVLLYGNGPGYVLKDGARPDVTESESGSPEYRQQSAVPLDEETHAGEDVAVFARGPQAHLVHGVQEQTFIAHVMAFAACLEPYTACDLAPPAGTTDAAHPGRIYKGVIQAIQKSDEGHPFRAYLESEVAISEELVQKYSNSALGHVNVTIKELRRLFLVDDLVDSLKHHHHHH
notes: Any secretion signal in front of AP is not described; also called alkaline phosphatase-labeled Nogo-66
On to B1, for which the binding result in assay [2], in assay [3], in assay [4] and in assay [5] was “binds” throughout.

B2: MAG-AP (N-terminal human myelin associated glycoprotein amino acids 1-516, C-terminal alkaline phosphatase domain amino acids 23-511, six C-terminal histidine … (ligand)
chain: GHWGAWMPSSISAFEGTCVSIPCRFDFPDELRPAVVHGVWYFNSPYPKNYPPVVFKSRTQVVHESFQGRSRLLGDLGLRNCTLLLSNVSPELGGKYYFRGDLGGYNQYTFSEHSVLDIVNTPNIVVPPEVVAGTEVEVSCMVPDNCPELRPELSWLGHEGLGEPAVLGRLREDEGTWVQVSLLHFVPTREANGHRLGCQASFPNTTLQFEGYASMDVKYPPVIVEMNSSVEAIEGSHVSLLCGADSNPPPLLTWMRDGTVLREAVAESLLLELEEVTPAEDGVYACLAENAYGQDNRTVGLSVMYAPWKPTVNGTMVAVEGETVSILCSTQSNPDPILTIFKEKQILSTVIYESELQLELPAVSPEDDGEYWCVAENQYGQRATAFNLSVEFAPVLLLESHCAAARDTVQCLCVVKSNPEPSVAFELPSRNVTVNESEREFVYSERSGLVLTSILTLRGQAQAPPRVICTARNLYGAKSLELPFQGAHRLMWAKIGPIIPVEEENPDFWNREAAEALGAAKKLQPAQTAAKNLIIFLGDGMGVSTVTAARILKGQKKDKLGPEIPLAMDRFPYVALSKTYNVDKHVPDSGATATAYLCGVKGNFQTIGLSAAARFNQCNTTRGNEVISVMNRAKKAGKSVGVVTTTRVQHASPAGTYAHTVNRNWYSDADVPASARQEGCQDIATQLISNMDIDVILGGGRKYMFRMGTPDPEYPDDYSQGGTRLDGKNLVQEWLAKRQGARYVWNRTELMQASLDPSVTHLMGLFEPGDMKYEIHRDSTLDPSLMEMTEAALRLLSRNPRGFFLFVEGGRIDHGHHESRAYRALTETIMFDDAIERAGQLTSEEDTLSLVTADHSHVFSFGGYPLRGSSIFGLAPGKARDRKAYTVLLYGNGPGYVLKDGARPDVTESESGSPEYRQQSAVPLDEETHAGEDVAVFARGPQAHLVHGVQEQTFIAHVMAFAACLEPYTACDLAPPAGTTDAAHPGHHHHHH
notes: range 1-516;range 23-511; also called alkaline phosphatase-labeled MAG; MAG-AP fusion protein
Take B2: the results for the “percent reduction in binding relative to wild type NgR1” value in assay [6], in assay [7] and in assay [8] were 57%, 36% and 58%, respectively.
